Experiment: soluble on expression in E. coli; label from the status in PepcDB or PDB records

Sequence | soluble on expression in E. coli
SGWRSSVSRSLRPETSCDRPSSHLRNMDVNMAAELSPTNSSSSGELSVSPEPPRETQAFLGKVTVIDYFTFQHKHLKVTNIDDMTETLYVKLPENMTRCDHLPITCEYLLGRGSYGAVYAHADNATVKLYDSVTELYHELMVCDMIQIGKATAEDGQDKALVDYLSACTSCHALFMPQFRCSLQDYGHWHDGSIEPLVRGFQGLKDAVYFLNRHCGLFHSDISPSNILVDFTDTMWGMGRLVLTDYGTASLHDRNKMLDVRLKSSKGRQLYRLYCQREPFSIAKDTYKPLCLLSKCYILRGAGHIPDPSACGPVGAQTALRLDLQSLGYSLLYGIMHLADSTHKIPYPNPDMGFDRSDPLYFLQFAAPKVVLLEVLSQMWNLNLDMGLTSCGESPCVDVTAEHMSQFLQWCRSLKKRFKESYFFNCRPRFEHPHLPGLVAELLADDFFGPDGRRG | soluble
MGSDKIHHHHHHMYSYNQLRRVTFNQLGRIAYNSRSSPRRRAVFERLAGARPVVLTQERERLAVLDHANDIILEQEINGIDTVTFNIPFSDEKNQFIQNEHLIQIIDDYYIIRKITHSRGSQGVPITEVYAEALWYDLQFAEPMDISEWEGRAPAIVMADILRGTDWSVGRVELMNVRNVSVEPGVTNRLAALSQLPEVYGGELHFNSEAMTVDFLAPVGRQSGAAIVYEKNIHSIEAIYDTEDLITRIYPYGKENLSIEDINDGVPYLDIRDDPSYEFTDKLRVRILKDDRFTNPFHLREMAEEALKVLSQPRTSYHIKAADLSEMAGMSHEQFFLGDEVRVYDKELGIDIATRIMAWQYNVAEPWNTEIMLESKQPTLSDLLTGIQEGTGFLQSEDTVDSSDMLELSVFNHILNSRADDGFHYWTNSGWEIDAVNGYSGNASFKATGTTGRKVLSQTVYPAHRDHYAISFRSATKEFQTNDGGRVGLEIIVRYDDGTEDEPTFISLT | not soluble
MELKHSISDYTEAEFLEFVKKIARAEGATECDDNKLVREFERLTEHPDGSDLIYYPRDDREDSPEGIVKEIKEWRAANGKSGFKQG | soluble
MGSDKIHHHHHHMSSSGYVPDNKNLKKSSGTPNLFFDSRKNIFFKRDEKNVAYEVTSTQLPAMIGGAFVDLFMTKGHMREPHWHPNAWELDVVVSGEAVTSILNPETNQLQNYHMKAGQTVFIPMGWWHWITAVTEEVQLHLFFNNDQFETAEGSDILRLTPPEVFQAAYGVSAEKLGKDLSPIKESVVIGPPNLNRIKGVKESDDSNIVVTLNGQITSCEIE | not soluble
MAHHHHHHMGAKILTKIQREKLVEWENCVSVIEAAILKHKYKQKVNKNIPSLLRVQAHIRKKMV | not soluble
CDQFVTDALKTFENTYLNDHLPHDIHKNVMRMVNHEVSSFGVVTSAEDSYLGAVDENTLEQATWSFLKDLKRITDSDLKGELFIKELLWMLRHQKDIFNNLARQFQKEVLCPNKCGVMSQTLIWCLKCEKQLHICRKSLDCGERHIEVHRSEDLVLDCLLS | not soluble
MPGRKRKLAAKTAELAPEAGEGSESTSLVGSADASASTAAGVAHTEQQEMPSGGLHESFLESIPPAASFLEELAWVESLASPSYVAYLCQMRRFDDVVAQRRLTTLQRWRQDPAYRQHVSQPIALFFLEQLCSAEFREALRHPAVAALYERQVDLYRRCYGNLLNTGESRVLR | not soluble
MSLKTIAFDSNKYLNLQRDHILERISQFDGKLYMEFGGKMLEDYHAARVLPGYEPDNKIKLLKELKEQVEIVIAINANNIEHSKARGDLGISYDQEVFRLIDKFNTLDIYVGSVVITQYNNQPAADAFRKQLEKNGIASYLHYPIKGYPTDINHIISSEGMGKNDYIKTSRNLIVVTAPGPGSGKLATCMSQMYHDQINGVKSGYAKFETFPVWNLPLHHPVNLAYEAATADLDDVNMIDPFHLETYGKTAVNYNRDIEVFPVLNRTFERILSKSPYASPTDMGVNMVGFSIVNEEAAIEASKQEIIRRYYQTLVDFKAERVTESAVKKIELLMNDIGVTPDDRHVTVAAHQKAEQTGQPALALQLPNGQIVTGKTSGLFGPTAAVIINAIKTLAKIDKTTHLIEPEYVKPIQGLKVNHLGSHNPRLHSNEILIALAITAMTSEEANLAMKELGNLKGSEAHSTVILTEEDKNVLRKLGVNITFDPVYQHHKLYRKEGHHHHHH | soluble
